Assay results as given in patent publication US20150174203A1 (ICAHN SCHOOL OF MEDICINE AT MOUNT SINAI, published 2015).

T1: paired immunoglobulin-like receptor B (PirB) (mouse, UniProt P97484 25-841)
T1 construct: whole, on cells
T1 sequence (looked up): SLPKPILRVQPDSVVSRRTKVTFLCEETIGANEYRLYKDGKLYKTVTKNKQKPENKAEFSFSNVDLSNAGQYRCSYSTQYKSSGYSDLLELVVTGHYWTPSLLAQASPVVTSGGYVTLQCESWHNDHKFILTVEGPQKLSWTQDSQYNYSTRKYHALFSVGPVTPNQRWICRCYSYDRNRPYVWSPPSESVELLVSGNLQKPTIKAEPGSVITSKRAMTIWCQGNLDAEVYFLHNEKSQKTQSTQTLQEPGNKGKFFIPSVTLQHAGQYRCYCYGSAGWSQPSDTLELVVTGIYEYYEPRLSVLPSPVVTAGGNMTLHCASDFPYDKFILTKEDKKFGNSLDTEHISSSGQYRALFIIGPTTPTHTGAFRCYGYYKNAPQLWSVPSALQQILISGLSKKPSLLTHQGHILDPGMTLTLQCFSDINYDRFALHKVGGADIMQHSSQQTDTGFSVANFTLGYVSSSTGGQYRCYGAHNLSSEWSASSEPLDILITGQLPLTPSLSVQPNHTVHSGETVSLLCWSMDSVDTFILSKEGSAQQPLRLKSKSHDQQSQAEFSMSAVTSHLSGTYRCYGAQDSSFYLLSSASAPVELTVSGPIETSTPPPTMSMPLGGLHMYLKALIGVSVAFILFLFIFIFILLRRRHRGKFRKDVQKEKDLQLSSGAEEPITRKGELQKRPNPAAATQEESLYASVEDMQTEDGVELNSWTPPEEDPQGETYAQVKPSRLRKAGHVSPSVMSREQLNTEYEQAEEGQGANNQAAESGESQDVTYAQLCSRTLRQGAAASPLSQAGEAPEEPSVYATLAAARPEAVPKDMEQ

T2: human Angptl-7 with FLAG tag at the C-terminus (human, UniProt O43827 27-346)
T2 construct: not shown: FLAG tag at the C-terminus
T2 sequence: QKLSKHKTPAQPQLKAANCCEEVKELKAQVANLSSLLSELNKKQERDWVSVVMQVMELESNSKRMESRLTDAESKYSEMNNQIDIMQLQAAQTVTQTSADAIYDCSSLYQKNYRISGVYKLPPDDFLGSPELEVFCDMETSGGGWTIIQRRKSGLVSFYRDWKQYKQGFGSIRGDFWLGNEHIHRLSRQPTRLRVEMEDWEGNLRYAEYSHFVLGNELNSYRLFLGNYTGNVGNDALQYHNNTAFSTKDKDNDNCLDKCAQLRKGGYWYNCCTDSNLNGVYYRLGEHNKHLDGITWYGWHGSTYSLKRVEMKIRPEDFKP

B1: human Angptl-2 with FLAG tag at the C-terminus, mammalian-expressed (ligand, not shown: small tags and cut ends)
chain: QEDGFEGTEEGSPREFIYLNRYKRAGESQDKCTYTFIVPQQRVTGAICVNSKEPEVLLENRVHKQELELLNNELLKQKRQIETLQQLVEVDGGIVSEVKLLRKESRNMNSRVTQLYMQLLHEIIRKRDNALELSQLENRILNQTADMLQLASKYKDLEHKYQHLATLAHNQSEIIAQLEEHCQRVPSARPVPQPPPAAPPRVYQPPTYNRIINQISTNEIQSDQNLKVLPPPLPTMPTLTSLPSSTDKPSGPWRDCLQALEDGHDTSSIYLVKPENTNRLMQVWCDQRHDPGGWTVIQRRLDGSVNFFRNWETYKQGFGNIDGEYWLGLENIYWLTNQGNYKLLVTMEDWSGRKVFAEYASFRLEPESEYYKLRLGRYHGNAGDSFTWHNGKQFTTLDRDHDVYTGNCAHYQKGGWWYNACAHSNLNGVWYRGGHYRSRYQDGVYWAEFRGGSYSLKKVVMMIRPNPNTFH
notes: also called Angptl-2-FLAG; A2-Flag (mammalian)
B2: LILRA2 (receptor, UniProt Q8N149 24-483, looked up)
chain: GHLPKPTLWAEPGSVIIQGSPVTLRCQGSLQAEEYHLYRENKSASWVRRIQEPGKNGQFPIPSITWEHAGRYHCQYYSHNHSSEYSDPLELVVTGAYSKPTLSALPSPVVTSGGNVTLQCVSQVAFDGFILCKEGEDEHPQRLNSHSHARGWSWAIFSVGPVSPSRRWSYRCYAYDSNSPYVWSLPSDLLELLVPGVSKKPSLSVQPGPMVAPGESLTLQCVSDVGYDRFVLYKEGERDFLQRPGWQPQAGLSQANFTLGPVSPSHGGQYRCYSAHNLSSEWSAPSDPLDILITGQFYDRPSLSVQPVPTVAPGKNVTLLCQSRGQFHTFLLTKEGAGHPPLHLRSEHQAQQNQAEFRMGPVTSAHVGTYRCYSSLSSNPYLLSLPSDPLELVVSEAAETLSPSQNKTDSTTTSLGQHPQDYTVENLIRMGVAGLVLVVLGILLFEAQHSQRSLQDAAGR
notes: whole, on cells
B3: GST-Angptl-5-FLAG, in house, bacterially expressed (ligand)
chain: NCVHHSTDSSVVNIVEDGSNAKDESKSNDTVCKEDCEESCDVKTKITREEKHFMCRNLQNSIVSYTRSTKKLLRNMMDEQQASLDYLSNQVNELMNRVLLLTTEVFRKQLDPFPHRPVQSHGLDCTDIKDTIGSVTKTPSGLYIIHPEGSSYPFEVMCDMDYRGGGWTVIQKRIDGIIDFQRLWCDYLDGFGDLLGEFWLGLKKIFYIVNQKNTSFMLYVALESEDDTLAYASYDNFWLEDETRFFKMHLGRYSGNAGDAFRGLKKEDNQNAMPFSTSDVDNDGCRPACLVNGQSVKSCSHLHNKTGWWFNECGLANLNGIHHFSGKLLATGIQWGTWTKNNSPVKIKSVSMKIRRMYNPYFK
notes: also called GST-A5 (in house, bacterial); GST-A5-FLAG; not shown: glutathione S-transferase (GST) tag at the N-terminus (pGEX vector); FLAG tag at the C-terminus
B4: GST-Angptl-5 (purified, purchased from Abnova) (ligand)
chain: B3 chain
notes: Bought fusion protein; Used radio-iodinated in the liquid-phase assay; also called GST-A5 (Abnova); ^125I-GST-Angptl-5; not shown: glutathione S-transferase (GST) tag at the N-terminus
B5: human Angptl-3 with FLAG tag at the C-terminus (ligand)
chain: DQDNSSFDSLSPEPKSRFAMLDDVKILANGLLQLGHGLKDFVHKTKGQINDIFQKLNIFDQSFYDLSLQTSEIKEEEKELRRTTYKLQVKNEEVKNMSLELNSKLESLLEEKILLQQKVKYLEEQLTNLIQNQPETPEHPEVTSLKTFVEKQDNSIKDLLQTVEDQYKQLNQQHSQIKEIENQLRRTSIQEPTEISLSSKPRAPRTTPFLQLNEIRNVKHDGIPAECTTIYNRGEHTSGMYAIRPSNSQVFHVYCDVISGSPWTLIQHRIDGSQNFNETWENYKYGFGRLDGEFWLGLEKIYSIVKQSNYVLRIELEDWKDNKHYIEYSFYLGNHETNYTLHLVAITGNVPNAIPENKDLVFSTWDHKAKGHFNCPEGYSGGWWWHDECGENNLNGKYNKPRAKSKPERRRGLSWKSQNGRLYSIKSTKMLIHPTDSESFE
notes: not shown: FLAG tag at the C-terminus
B6: mouse LAIR1 (receptor, UniProt Q8BG84 22-263, looked up)
chain: QEGSLPDITIFPNSSLMISQGTFVTVVCSYSDKHDLYNMVRLEKDGSTFMEKSTEPYKTEDEFEIGPVNETITGHYSCIYSKGITWSERSKTLELKVIKENVIQTPAPGPTSDTSWLKTYSIYIFTVVSVIFLLCLSALLFCFLRHRQKKQGLPNNKRQQQRPEERLNLATNGLEMTPDIVADDRLPEDRWTETWTPVAGDLQEVTYIQLDHHSLTQRAVGAVTSQSTDMAESSTYAAIIRH
notes: whole, on cells
B7: GST-Angptl-3 (ligand)
chain: SRIDQDNSSFDSLSPEPKSRFAMLDDVKILANGLLQLGHGLKDFVHKTKGQINDIFQKLNIFDQSFYDLSLQTSEIKEEEKELRRTTYKLQVKNEEVKNMSLELNSKLESLLEEKILLQQKVKYLEEQLTNLIQNQPETPEHPEVTSLKTFVEKQDNSIKDLLQTVEDQYKQLNQQHSQIKEIENQLRRTSIQEPTEISLSSKPRAPRTTPFLQLNEIRNVKHDGIPAECTTIYNRGEHTSGMYAIRPSNSQVFHVYCDVISGSPWTLIQHRIDGSQNFNETWENYKYGFGRLDGEFWLGLEKIYSIVKQSNYVLRIELEDWKDNKHYIEYSFYLGNHETNYTLHLVAITGNVPNAIPENKDLVFSTWDHKAKGHFNCPEGYSGGWWWHDECGENNLNGKYNKPRAKSKPERRRGLSWKSQNGRLYSIKSTKMLIHPTDSESFE
notes: also called GST-Angptls-FLAG (Angptl-3); not shown: glutathione S-transferase (GST) tag (pGEX vector); FLAG tag (GST-Angptls-FLAG)

Legend:
LILRA1 = target: T3, LILRA1 (UniProt O75019 17-489, limits assumed); assay: flow cytometry on transfected 293T cells
T3 construct: whole, on cells
Method: (§1) Plasmids and proteins. […] Angptl-2-FLAG was purified using M2 resin. Purified GST-Angptl-5 was purchased from Abnova. Bacterially-expressed Flag-Angptl-2 and Angptl-2-Flag were constructed in pET-26b(+) vector, and GST-Angptls-FLAG in pGEX vector, and expressed and purified from bacteria. […] Anti-LILRB2-PE was used as indicated. The cells were analyzed using either a FACSCalibur or FACSAria instrument (Becton Dickinson).

LILRB1 = target: T4, LILRB1 (human, UniProt Q8NHL6 24-650); assay: flow cytometry on transfected 293T cells
T4 construct: also called leukocyte immunoglobulin-like receptor B1
Method: as §1

LILRA4 = target: T5, LILRA4 (UniProt P59901 24-499, limits assumed); assay: flow cytometry on transfected 293T cells
T5 construct: whole, on cells
Method: as §1

[1] = target: B1; assay: flow cytometry on transfected 293T cells
Method: as §1

[2] = target: T1, paired immunoglobulin-like receptor B …; assay: flow cytometry, PirB-transfected 293T cells, GST-Angptl-5-FLAG according to the legend, Angptl binding against PirB staining; left gate of the same panel 46; Control panel 123 (left) and 183 (right)
Method: as §1

LILRA2 = target: B2; assay: flow cytometry on transfected 293T cells
Method: as §1

LILRB5 = target: T6, LILRB5 (human, UniProt O75023 24-590); assay: flow cytometry on transfected 293T cells
T6 construct: also called leukocyte immunoglobulin-like receptor B5
Method: as §1

LILRB3 = target: T7, LILRB3 (human, UniProt O75022 24-631); assay: flow cytometry on transfected 293T cells
T7 construct: also called leukocyte immunoglobulin-like receptor B3
Method: as §1

[3] = target: T1, paired immunoglobulin-like receptor B …; assay: flow cytometry on PirB-transfected 293T cells
Method: as §1

[4] = target: T2, human Angptl-7 with FLAG tag at the …; assay: flow cytometry, 293T cells transfected with mouse LAIR1, anti-FLAG-APC against anti-LAIR1-PE; left gate of the same panel 56; Control panel 14 (left) and 15 (right)
Method: as §1

human LILRB2 = target: T8, human LILRB2 (human, UniProt Q8N423 22-597); assay: flow cytometry on human cord blood LILRB2+ cells
T8 construct: also called leukocyte immunoglobulin-like receptor B2
Method: as §1

T4 sequence (Q8NHL6 other isoform, or with tags, fused parts or gaps limits assumed): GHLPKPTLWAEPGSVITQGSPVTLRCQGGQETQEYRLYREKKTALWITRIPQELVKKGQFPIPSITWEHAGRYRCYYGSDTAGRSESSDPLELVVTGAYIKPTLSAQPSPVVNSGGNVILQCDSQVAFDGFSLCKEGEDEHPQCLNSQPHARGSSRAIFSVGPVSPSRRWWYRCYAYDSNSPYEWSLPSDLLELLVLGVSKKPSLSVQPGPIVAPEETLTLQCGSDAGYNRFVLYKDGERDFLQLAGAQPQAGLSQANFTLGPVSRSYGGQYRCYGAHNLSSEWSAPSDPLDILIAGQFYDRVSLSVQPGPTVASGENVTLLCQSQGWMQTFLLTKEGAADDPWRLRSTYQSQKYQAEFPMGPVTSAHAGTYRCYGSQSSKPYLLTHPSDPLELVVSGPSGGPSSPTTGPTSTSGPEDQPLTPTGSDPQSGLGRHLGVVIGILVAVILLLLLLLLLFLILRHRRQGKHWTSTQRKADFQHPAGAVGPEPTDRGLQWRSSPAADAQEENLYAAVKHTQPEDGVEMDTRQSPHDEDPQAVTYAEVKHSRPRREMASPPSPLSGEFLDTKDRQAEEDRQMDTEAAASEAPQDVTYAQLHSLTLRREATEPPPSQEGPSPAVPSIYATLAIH
T5 sequence (P59901 24-499 limits assumed): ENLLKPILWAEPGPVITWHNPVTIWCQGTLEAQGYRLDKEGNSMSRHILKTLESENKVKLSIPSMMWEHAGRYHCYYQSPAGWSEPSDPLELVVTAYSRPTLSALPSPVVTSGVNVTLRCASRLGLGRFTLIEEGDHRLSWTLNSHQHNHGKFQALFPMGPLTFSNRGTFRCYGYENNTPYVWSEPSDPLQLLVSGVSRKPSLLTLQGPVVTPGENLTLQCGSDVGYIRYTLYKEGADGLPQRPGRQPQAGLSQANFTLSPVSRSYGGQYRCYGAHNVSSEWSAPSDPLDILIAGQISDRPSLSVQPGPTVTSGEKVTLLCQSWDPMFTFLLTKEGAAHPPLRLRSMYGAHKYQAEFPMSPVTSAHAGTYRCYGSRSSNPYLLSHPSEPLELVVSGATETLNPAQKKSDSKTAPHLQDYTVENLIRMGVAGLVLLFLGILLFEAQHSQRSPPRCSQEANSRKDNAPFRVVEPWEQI
T3 sequence (O75019 17-489 limits assumed): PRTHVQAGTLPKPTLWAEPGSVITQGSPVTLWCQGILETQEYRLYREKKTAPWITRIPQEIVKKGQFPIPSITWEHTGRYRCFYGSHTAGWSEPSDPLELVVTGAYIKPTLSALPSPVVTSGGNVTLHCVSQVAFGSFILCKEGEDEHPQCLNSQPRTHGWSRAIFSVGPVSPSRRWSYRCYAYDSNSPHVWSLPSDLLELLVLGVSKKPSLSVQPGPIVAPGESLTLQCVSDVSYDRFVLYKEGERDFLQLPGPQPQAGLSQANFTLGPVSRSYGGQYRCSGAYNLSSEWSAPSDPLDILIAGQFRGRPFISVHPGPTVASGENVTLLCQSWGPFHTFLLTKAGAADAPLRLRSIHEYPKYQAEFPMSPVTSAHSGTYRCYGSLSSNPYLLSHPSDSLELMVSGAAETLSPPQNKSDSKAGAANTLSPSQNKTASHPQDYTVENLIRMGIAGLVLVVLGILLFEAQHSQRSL
T8 sequence (Q8N423 22-597 D161E/M235V limits assumed): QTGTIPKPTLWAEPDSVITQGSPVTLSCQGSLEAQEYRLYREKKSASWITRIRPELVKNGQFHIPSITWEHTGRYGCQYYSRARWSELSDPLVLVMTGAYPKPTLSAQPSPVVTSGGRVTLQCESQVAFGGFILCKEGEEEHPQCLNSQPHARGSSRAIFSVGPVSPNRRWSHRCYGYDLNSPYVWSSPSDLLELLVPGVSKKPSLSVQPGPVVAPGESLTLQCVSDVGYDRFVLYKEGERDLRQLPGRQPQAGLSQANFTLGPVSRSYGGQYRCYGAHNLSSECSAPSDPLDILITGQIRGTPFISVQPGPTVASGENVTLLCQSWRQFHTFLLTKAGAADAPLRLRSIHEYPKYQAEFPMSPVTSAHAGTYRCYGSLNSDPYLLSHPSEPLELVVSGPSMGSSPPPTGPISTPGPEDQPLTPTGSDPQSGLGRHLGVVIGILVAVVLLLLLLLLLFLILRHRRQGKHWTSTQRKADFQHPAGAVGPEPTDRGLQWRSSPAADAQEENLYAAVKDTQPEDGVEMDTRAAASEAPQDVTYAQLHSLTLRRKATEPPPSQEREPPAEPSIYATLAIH
T6 sequence (O75023 other isoform, or with tags, fused parts or gaps limits assumed): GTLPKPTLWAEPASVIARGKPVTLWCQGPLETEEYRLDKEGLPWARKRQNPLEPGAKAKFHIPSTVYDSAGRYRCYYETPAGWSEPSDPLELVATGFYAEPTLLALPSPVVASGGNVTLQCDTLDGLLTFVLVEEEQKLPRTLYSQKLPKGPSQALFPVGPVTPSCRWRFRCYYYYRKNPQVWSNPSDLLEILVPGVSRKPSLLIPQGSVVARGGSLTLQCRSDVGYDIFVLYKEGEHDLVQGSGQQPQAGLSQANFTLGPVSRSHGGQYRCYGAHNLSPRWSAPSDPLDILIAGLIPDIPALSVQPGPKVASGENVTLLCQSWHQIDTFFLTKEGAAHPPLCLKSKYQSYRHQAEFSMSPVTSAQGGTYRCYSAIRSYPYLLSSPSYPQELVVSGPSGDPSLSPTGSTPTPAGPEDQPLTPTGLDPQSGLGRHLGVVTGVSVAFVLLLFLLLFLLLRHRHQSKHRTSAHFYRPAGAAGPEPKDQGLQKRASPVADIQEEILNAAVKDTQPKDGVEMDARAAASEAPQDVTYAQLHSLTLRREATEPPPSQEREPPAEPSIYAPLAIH
T7 sequence (O75022 other isoform, or with tags, fused parts or gaps limits assumed): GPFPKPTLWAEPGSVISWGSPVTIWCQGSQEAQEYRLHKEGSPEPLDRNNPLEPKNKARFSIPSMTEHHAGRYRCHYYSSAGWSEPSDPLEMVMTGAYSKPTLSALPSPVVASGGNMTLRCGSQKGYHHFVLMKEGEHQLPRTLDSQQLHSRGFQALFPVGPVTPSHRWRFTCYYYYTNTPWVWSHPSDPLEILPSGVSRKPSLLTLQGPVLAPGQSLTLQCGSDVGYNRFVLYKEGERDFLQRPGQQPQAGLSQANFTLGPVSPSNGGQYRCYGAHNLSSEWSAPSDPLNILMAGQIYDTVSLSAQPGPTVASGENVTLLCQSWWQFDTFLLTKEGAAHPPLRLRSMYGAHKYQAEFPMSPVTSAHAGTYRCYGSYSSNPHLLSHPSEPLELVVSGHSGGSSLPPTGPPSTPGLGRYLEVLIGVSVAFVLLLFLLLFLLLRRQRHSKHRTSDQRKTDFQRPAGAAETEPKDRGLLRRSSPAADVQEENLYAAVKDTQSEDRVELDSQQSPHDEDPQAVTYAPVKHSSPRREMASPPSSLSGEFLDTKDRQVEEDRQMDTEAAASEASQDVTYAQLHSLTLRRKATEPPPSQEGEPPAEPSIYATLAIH

Binder: B1
binding result (LILRA1): no binding | binding result (LILRB1): no binding | binding result (LILRA4): no binding

Binder: B2
binding result [1]: no binding

Binder: B3
binding result [2]: binds

Binder: B4
binding result (LILRA2): no binding | binding result (LILRB5): binds | binding result (LILRA1): no binding | binding result (LILRB1): no binding | binding result (LILRA4): no binding | binding result (LILRB3): binds | binding result [3]: binds

Binder: B5
binding result [3]: binds

Binder: B6
binding result [4]: binds

Binder: B7
binding result (human LILRB2): binds
